Results reported in paper PMC5449630.
Like-named read-outs stand apart in the source and are kept apart here.

B1: FAM-20p/20c blunt duplex (dsDNA)
DNA 1: TAGCACCTACCGATTGTATG
DNA 2: CATACAATCGGTAGGTGCTA
modifications: 3'-phosphate on strand 1; 5'-phosphate on strand 2
B2: FAM-20p/36c 5' overhang duplex (dsDNA)
DNA 1: TAGCACCTACCGATTGTATG
DNA 2: CGACACAAAAACGTATCATACAATCGGTAGGTGCTA
modifications: 3'-phosphate on strand 1; 5'-phosphate on strand 2

Assays:
mPNKP D170A [1] = target: T1, mPNKP D170A (Mus musculus (murine), UniProt Q9JLV6 1-522, D170A); assay: EMSA
mPNKP D170A [2] = target: T1, mPNKP D170A; assay: EMSA; remark: listed apart in the source

T1 sequence (Q9JLV6 whole entry D170A): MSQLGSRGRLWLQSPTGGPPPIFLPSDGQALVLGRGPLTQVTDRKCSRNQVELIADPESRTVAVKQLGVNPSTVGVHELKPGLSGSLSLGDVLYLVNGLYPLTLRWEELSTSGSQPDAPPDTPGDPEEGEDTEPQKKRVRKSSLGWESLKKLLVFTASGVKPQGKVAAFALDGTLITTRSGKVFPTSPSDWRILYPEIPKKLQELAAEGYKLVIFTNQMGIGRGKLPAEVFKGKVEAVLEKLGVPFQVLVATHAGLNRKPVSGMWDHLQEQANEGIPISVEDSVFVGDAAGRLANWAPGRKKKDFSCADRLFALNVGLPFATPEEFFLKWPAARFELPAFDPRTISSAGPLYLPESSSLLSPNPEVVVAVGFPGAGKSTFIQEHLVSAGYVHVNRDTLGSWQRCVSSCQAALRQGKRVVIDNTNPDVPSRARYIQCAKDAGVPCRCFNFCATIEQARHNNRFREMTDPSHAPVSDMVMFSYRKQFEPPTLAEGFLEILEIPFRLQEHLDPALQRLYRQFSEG

Binder | binding result (mPNKP D170A [1]) | binding result (mPNKP D170A [2])
B1 | binds | 
TAGCACCTACCGATTGTATG (ssDNA, 3'-phosphate) [FAM-20p ssDNA] |  | binds
B2 | binds | 
